Results from patent US20240226163A1 (Regeneron, published 2024).

Columns and labels:
[1] = target: T1, HLA-A*02:01 presenting MAGE-A4 230-239 peptide (…) (human); test: flow cytometry, peptide-pulsed T2 cells;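 on S/N ratio: ratio of peak mean fluorescence intensity across a 12-point threefold antibody dilution series to the MFI with secondary antibody only, live-gated cells by flow cytometry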
T1 construct: On peptide-pulsed T2 cells
Description: (§1) Samples were run on an IntelliCyt iQue flow cytometer (Intellicyt) and results were analyzed using Forecyte analysis software (Intellicyt) to calculate the mean fluorescent intensity (MFI) after gating for live cells. MFI values were plotted in Graphpad Prism using a four-parameter logistic equation over a 12-point response curve to calculate EC50 values. The secondary antibody alone (i.e., no primary antibody) for each dose-response curve was also included in the analysis as a continuation of the three-fold serial dilution and was represented as the lowest dose. The signal to noise (S/N) was determined by taking the ratio of the highest MFI on the dose response curve to the MFI in the secondary-alone wells.

[2] = target: T2, HLA-A*02:01 presenting PAPPA2 307-316 peptide (…) (human); test: flow cytometry, peptide-pulsed T2 cells;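 on S/N ratio: ratio of peak mean fluorescence intensity across a 12-point threefold antibody dilution series to the MFI with secondary antibody only, live-gated cells by flow cytometry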
T2 construct: On peptide-pulsed T2 cells

[3] = target: T3, HLA-A*02:01 presenting CELSR3 1594-1603 peptide (…) (human); test: flow cytometry, peptide-pulsed T2 cells;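 on S/N ratio: ratio of peak mean fluorescence intensity across a 12-point threefold antibody dilution series to the MFI with secondary antibody only, live-gated cells by flow cytometry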
T3 construct: On peptide-pulsed T2 cells

[4] = target: T4, HLA-A*02:01 presenting MAGE-A10 254-263 peptide (…) (human); test: flow cytometry, peptide-pulsed T2 cells;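 on S/N ratio: ratio of peak mean fluorescence intensity across a 12-point threefold antibody dilution series to the MFI with secondary antibody only, live-gated cells by flow cytometry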
T4 construct: On peptide-pulsed T2 cells

[5] = target: T5, HLA-A*02:01 presenting FAT4 4053-4062 peptide (…) (human); test: flow cytometry, peptide-pulsed T2 cells
T5 construct: On peptide-pulsed T2 cells

[6] = target: T6, HLA-A*02:01 presenting CCDC36 417-426 peptide (…) (human); test: flow cytometry, peptide-pulsed T2 cells
T6 construct: On peptide-pulsed T2 cells

[7] = target: T7, HLA-A*02:01 presenting SCL25A19 111-120 peptide (…) (human); test: flow cytometry, peptide-pulsed T2 cells
T7 construct: On peptide-pulsed T2 cells

[8] = target: T8, HLA-A*02:01 presenting THBS3 116-125 peptide (…) (human); test: flow cytometry, peptide-pulsed T2 cells
T8 construct: On peptide-pulsed T2 cells

[9] = target: T9, HLA-A*02:01 presenting LPIN2 823-832 peptide (…) (human); test: flow cytometry, peptide-pulsed T2 cells
T9 construct: On peptide-pulsed T2 cells

[10] = target: T2, HLA-A*02:01 presenting PAPPA2 307-316 …; test: flow cytometry, peptide-pulsed T2 cells, 100 nM antibody
Description: as §1

[11] = target: T3, HLA-A*02:01 presenting CELSR3 1594-1603 …; test: as above
Description: as §1

[12] = target: T4, HLA-A*02:01 presenting MAGE-A10 254-263 …; test: as above
Description: as §1

[13] = target: T5, HLA-A*02:01 presenting FAT4 4053-4062 …; test: as above
Description: as §1

[14] = target: T6, HLA-A*02:01 presenting CCDC36 417-426 …; test: as above
Description: as §1

[15] = target: T7, HLA-A*02:01 presenting SCL25A19 111-120 …; test: as above
Description: as §1

[16] = target: T8, HLA-A*02:01 presenting THBS3 116-125 …; test: as above
Description: as §1

[17] = target: T9, HLA-A*02:01 presenting LPIN2 823-832 …; test: as above
Description: as §1

[18] = target: T1, HLA-A*02:01 presenting MAGE-A4 230-239 …; test: as above
Description: as §1

[19] = target: T10, HLA-A*02:01 presenting MAGE-A8 232-241 peptide (…) (human); test: as above
T10 construct: On peptide-pulsed T2 cells
Description: as §1

[20] = target: T11, HLA-A*02:01 presenting MAGE-A4 286-294 peptide (…) (human); test: flow cytometry, peptide-pulsed T2 cells
T11 construct: On peptide-pulsed T2 cells
Description: (§2) Samples were run on an Intellicyt iQue flow cytometer (Intellicyt) and results were analyzed using Forecyte analysis software (Intellicyte) to calculate the mean fluorescent intensity (MFI) after gating for live cells. MFI values were plotted in Graphpad Prism using a four-parameter logistic equation over a 12-point response curve to calculate EC₅₀ values. The secondary antibody alone (i.e. no primary antibody) for each dose-response curve is also included in the analysis as a continuation of the three-fold serial dilution and is represented as the lowest dose. The signal to noise (S/N) was determined by taking the ratio of the highest MFI on the dose response curve to the MFI in the secondary alone wells.

[21] = target: T12, HLA-A*02:01 presenting RABGAP1L 408-416 peptide (…) (human); test: flow cytometry, peptide-pulsed T2 cells
T12 construct: On peptide-pulsed T2 cells; also called T2 Pulsed RABGAP1L 408-416
Description: as §2

[22] = target: T13, HLA-A*02:01 presenting AOX1 795-803 peptide (…) (human); test: flow cytometry, peptide-pulsed T2 cells
T13 construct: On peptide-pulsed T2 cells; also called T2 Pulsed AOX1 795-803
Description: as §2

[23] = target: T14, HLA-A*02:01 presenting TEP1 2156-2164 peptide (…) (human); test: flow cytometry, peptide-pulsed T2 cells
T14 construct: On peptide-pulsed T2 cells; also called T2 Pulsed TEP1 2156-2164
Description: as §2

[24] = target: T15, HLA-A*02:01 presenting NBAS 2063-2071 peptide (…) (human); test: flow cytometry, peptide-pulsed T2 cells
T15 construct: On peptide-pulsed T2 cells; also called T2 Pulsed NBAS 2063-2071
Description: as §2

[25] = target: T16, HLA-A*02:01 presenting SMIM11A 4-12 peptide (…) (human); test: flow cytometry, peptide-pulsed T2 cells
T16 construct: On peptide-pulsed T2 cells; also called T2 Pulsed SMIM11A 4-12
Description: as §2

[26] = target: T17, HLA-A*02:01 presenting HEATR5A 1925-1933 peptide (…) (human); test: flow cytometry, peptide-pulsed T2 cells
T17 construct: On peptide-pulsed T2 cells
Description: as §2

[27] = target: T18, HLA-A*02:01 presenting CARD8 170-178 peptide (…) (human); test: flow cytometry, peptide-pulsed T2 cells
T18 construct: On peptide-pulsed T2 cells; also called T2 Pulsed CARD8 170-178
Description: as §2

[28] = target: T19, HLA-A*02:01 presenting MRPL37 334-342 peptide (…) (human); test: flow cytometry, peptide-pulsed T2 cells
T19 construct: On peptide-pulsed T2 cells; also called T2 Pulsed MRPL37 334-342
Description: as §2

[29] = target: T20, HLA-A*02:01 presenting PSME2 145-153 peptide (…) (human); test: flow cytometry, peptide-pulsed T2 cells
T20 construct: On peptide-pulsed T2 cells; also called T2 Pulsed PSME2 145-153
Description: as §2

[30] = target: T21, HLA-A*02:01 presenting CNOT1 1965-1973 peptide (…) (human); test: flow cytometry, peptide-pulsed T2 cells
T21 construct: On peptide-pulsed T2 cells; also called T2 Pulsed CNOT1 1965-1973
Description: as §2

[31] = target: T11, HLA-A*02:01 presenting MAGE-A4 286-294 …; test: flow cytometry, peptide-pulsed T2 cells; remark: listed apart in the source
Description: as §2

[32] = target: T22, HLA-A*02:01 presenting FN1 2182-2190 peptide (…) (human); test: flow cytometry, peptide-pulsed T2 cells
T22 construct: On peptide-pulsed T2 cells; also called T2 Pulsed FN1 2182-2190
Description: as §2

[33] = target: T23, HLA-A*02:01 presenting PLEKHH2 790-798 peptide (…) (human); test: flow cytometry, peptide-pulsed T2 cells
T23 construct: On peptide-pulsed T2 cells; also called T2 Pulsed PLEKHH2 790-798
Description: as §2

[34] = target: T24, HLA-A*02:01 presenting PCDHGC3 337-345 peptide (…) (human); test: flow cytometry, peptide-pulsed T2 cells
T24 construct: On peptide-pulsed T2 cells; also called T2 Pulsed PCDHGC3 337-345
Description: as §2

[35] = target: T25, HLA-A*02:01 presenting SHTN1 198-206 peptide (…) (human); test: flow cytometry, peptide-pulsed T2 cells
T25 construct: On peptide-pulsed T2 cells; also called T2 Pulsed SHTN1 198-206
Description: as §2

[36] = target: T12, HLA-A*02:01 presenting RABGAP1L 408-416 …; test: flow cytometry, peptide-pulsed T2 cells; remark: listed apart in the source
[37] = target: T14, HLA-A*02:01 presenting TEP1 2156-2164 …; test: flow cytometry, peptide-pulsed T2 cells; remark: listed apart in the source
[38] = target: T15, HLA-A*02:01 presenting NBAS 2063-2071 …; test: flow cytometry, peptide-pulsed T2 cells; remark: listed apart in the source
[39] = target: T16, HLA-A*02:01 presenting SMIM11A 4-12 …; test: flow cytometry, peptide-pulsed T2 cells; remark: listed apart in the source
[40] = target: T17, HLA-A*02:01 presenting HEATR5A …; test: flow cytometry, peptide-pulsed T2 cells; remark: listed apart in the source
[41] = target: T18, HLA-A*02:01 presenting CARD8 170-178 …; test: flow cytometry, peptide-pulsed T2 cells; remark: listed apart in the source
[42] = target: T19, HLA-A*02:01 presenting MRPL37 334-342 …; test: flow cytometry, peptide-pulsed T2 cells; remark: listed apart in the source
[43] = target: T20, HLA-A*02:01 presenting PSME2 145-153 …; test: flow cytometry, peptide-pulsed T2 cells; remark: listed apart in the source
[44] = target: T21, HLA-A*02:01 presenting CNOT1 1965-1973 …; test: flow cytometry, peptide-pulsed T2 cells; remark: listed apart in the source
[45] = target: T22, HLA-A*02:01 presenting FN1 2182-2190 …; test: flow cytometry, peptide-pulsed T2 cells; remark: listed apart in the source
[46] = target: T23, HLA-A*02:01 presenting PLEKHH2 790-798 …; test: flow cytometry, peptide-pulsed T2 cells; remark: listed apart in the source
[47] = target: T24, HLA-A*02:01 presenting PCDHGC3 337-345 …; test: flow cytometry, peptide-pulsed T2 cells; remark: listed apart in the source

B1: mAbM34852N (antibody, V domains shown)
VH: EVQLLESGGGLVQPGGSLRLTCAASGFTFRSYAMSWVRQAPGKGLEWVSTISGNSDSTYYADSVKGRFTISRENSKNTLYLQMNSLRAEDTAVYYCAKDLHITMVRGAIPADVFDIWGQGTMVTVSS
VL: not shown
notes: Mouse constant region (detected with anti-mouse Fc secondary)
- EC50 [1]: 4.7 nM
- binding result [2]: no binding (tested: 100 nM)
- binding result [3]: no binding (tested: 100 nM)
- binding result [4]: no binding (tested: 100 nM)
- binding result [5]: no binding (tested: 100 nM)
- binding result [6]: no binding (tested: 100 nM)
- binding result [7]: no binding (tested: 100 nM)
- binding result [8]: no binding (tested: 100 nM)
- binding result [9]: no binding (tested: 100 nM)
- Antibody Binding Ratio (pulsed cell MFI/Unpulsed cell MFI) [10]: 0.9
- Antibody Binding Ratio (pulsed cell MFI/Unpulsed cell MFI) [11]: 0.8
- Antibody Binding Ratio (pulsed cell MFI/Unpulsed cell MFI) [12]: 0.9
- Antibody Binding Ratio (pulsed cell MFI/Unpulsed cell MFI) [13]: 1
- Antibody Binding Ratio (pulsed cell MFI/Unpulsed cell MFI) [14]: 1
- Antibody Binding Ratio (pulsed cell MFI/Unpulsed cell MFI) [15]: 0.8
- Antibody Binding Ratio (pulsed cell MFI/Unpulsed cell MFI) [16]: 1
- Antibody Binding Ratio (pulsed cell MFI/Unpulsed cell MFI) [17]: 0.9
- Antibody Binding Ratio (pulsed cell MFI/Unpulsed cell MFI) [18]: 513
- Antibody Binding Ratio (pulsed cell MFI/Unpulsed cell MFI) [19]: 870

B2: mAbM31339N (antibody, V domains shown)
VH: QVQLVESGGGLVKPGGSLRLSCAASGFTFSEYYLTWIRQAPGKGLDWIAYISSSGYNIYYADSVKDRFTISRDNGNNSLFLQMNNLRAEDTAVYFCAREGVTDGMDVWGQGTTVTVSS
VL: DIQMTQSPSSLSASVGDRVTITCRASQSIDTFLNWYQQKPGKVPKLLIYAASNLESGVPSRFSGSGSGTVFTLTISRLQPEDFATYYCQQSYSIPPITFGQGTRVEIK
notes: Human variable regions with a mouse constant region (detected with anti-mouse Fc secondary; its isotype control is mIgG2a); also called mAb31339N
- EC50 [20]: 1.7 nM

B3: mAbH31339N2 (antibody, human IgG4 S228P, kappa, V domains shown)
VH: QVQLVESGGGLVKPGGSLRLSCAASGFTFSEYYLTWIRQAPGKGLDWIAYISSSGYNIYYADSVKDRFTISRDNGKNSLFLQMNNLRAEDTAVYFCAREGVTDGMDVWGQGTTVTVSS
VL: DIQMTQSPSSLSASVGDRVTITCRASQSIDTFLNWYQQKPGKVPKLLIYAASNLESGVPSRFSGSGSGTVFTLTISRLQPEDFATYYCQQSYSIPPITFGQGTRVEIKR
notes: Fully human form (human constant region); also called parent antibody
- S/N ratio [21]: 1
- S/N ratio [22]: 131
- S/N ratio [23]: 1
- S/N ratio [24]: 1
- S/N ratio [25]: 1
- S/N ratio [26]: 1
- S/N ratio [27]: 1
- S/N ratio [28]: 1
- S/N ratio [29]: 1
- S/N ratio [30]: 1
- S/N ratio [31]: 310
- S/N ratio [32]: 1
- S/N ratio [33]: 1
- S/N ratio [34]: 1
- S/N ratio [35]: 5
- binding result [36]: no binding
- binding result [37]: no binding
- binding result [38]: no binding
- binding result [39]: no binding
- binding result [40]: no binding
- binding result [41]: no binding
- binding result [42]: no binding
- binding result [43]: no binding
- binding result [44]: no binding
- binding result [45]: no binding
- binding result [46]: no binding
- binding result [47]: no binding
